Data on four molecules can be found in patent US9974870B2, “Compositions and methods for treatment and imaging using nanoparticles” (Washington University, priority 2014, dated 2018).

The Km is the substrate concentration at which the rate is half of its maximum. The tissue uptake is the share of the injected amount in each gram of the tissue.

Where two headings read alike, the source gives them in different places. Non-standard residues stand in square brackets, D forms with d. Residues, ends and D or L forms follow the SMILES beside them. Primed or numbered codes have the meaning given here. DTPA′ = chelating agent complexing 111In or 64Cu; Tyr(3-I) = N[C@@H](Cc1ccc(O)c(I)c1)C(=O)O; Ahx = NCCCCCC(=O)O

For one series, the target named is T1, caspase-3 (Homo sapiens, UniProt P42574).
T1 construct: purchased Cal Biochem
T1 sequence (P42574 29-175 limits assumed): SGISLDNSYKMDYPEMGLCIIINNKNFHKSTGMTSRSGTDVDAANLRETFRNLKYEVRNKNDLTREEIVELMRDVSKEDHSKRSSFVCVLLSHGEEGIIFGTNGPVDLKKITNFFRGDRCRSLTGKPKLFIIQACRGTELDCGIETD
T1 sequence (P42574 176-277 limits assumed): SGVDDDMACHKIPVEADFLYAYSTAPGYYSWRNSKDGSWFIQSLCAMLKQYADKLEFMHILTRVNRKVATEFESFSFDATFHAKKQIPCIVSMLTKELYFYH
Kind of series: Caspase-3 mediated hydrolysis, enzyme kinetics by radio-HPLC. Format: biochemical. The following applies: caspase-3 290 pM, 37° C., pH 7.4. On the procedure: However, the dimer readily converts back to single molecules under the high reducing conditions such as used to prepare the ^99mTc chelate. Kinetic analysis of caspase-3 activation with [^125I]LS370 using a radionuclide detector (radio-high-performance liquid chromatography) gave a KM and kcat of 15±3 1 μM and […], respectively.
[^125I]LS370 was dissolved in caspase buffer {100 mM NaCl, 50 mM 4-(2-hydroxyethyl)-1-piperazineethanesulfonic acid, 10 mM DTT, 1 mM ethylenediaminetetraacetic acid, 10% glycerol, and 0.1% 3-[(3-cholamidopropyl) dimethylammonio]-1-propanesulfonate, pH 7.4} at concentrations varying from 2.5 to 20 μM. […] These solutions were allowed to react at 37° C. for 180 min and were sampled every 30 min. Substrate hydrolysis was monitored by radio-high-performance liquid chromatography (Vydac, C-18, 4.6×250 mm, 1 ml/m, A=H2O, 0.1% TFA, B=ACN, 0.1% TFA; 10-90% B, 30 min, linear gradient) of these time point samples. Comparison to a standard caspase-3 substrate (Ac-DEVD-pNA) and calculation of the enzyme kinetic parameters were carried out as previously described.

Series [1] can be described thus: Tissue biodistribution in tumor-bearing Balb/c mice. Particulars: female, Balb/c, mouse, iv, 0.185 MBq, total radioactivity, 1 h post injection. Format: in vivo. The protocol:
The structure-activity relationship was evaluated in vivo by performing a tissue biodistribution study in naive (FIG. 26) and tumor-bearing Balb/c mice (FIG. 23). […] The tumor/blood ratios for both [^125I]LS370 and [^125I]LS734 was 0.6±0.03. The tumor/muscle ratios were similar as well but higher than the tumor/blood ratios, [^125I]LS734 (2.2±0.1) and [^125I]LS370 (2.1±0.3). Thyroid uptake was 73±21 and 115±73 for [^125I]LS370 and [^125I]LS734, respectively.
All animal studies were conducted according to guidelines on the humane care and use of laboratory animals under protocols approved by the Animal Studies Committee at Washington University School of Medicine. For tissue biodistribution studies, syngeneic breast tumor models were prepared via bilateral orthotopic implantation of luciferase-transfected 4T1 mouse mammary carcinoma cells (4T1luc, 5×10^5 cells per tumor) in the mammary fat pads of 6-week-old, female Balb/c mice (NCI, Frederick, Md., USA). Studies were conducted when the tumors reached about 3 mm maximum diameter (−10 days). Healthy female Balb/c mice (n=4 per time point) were anesthetized with 1-2% vaporized isoflurane and injected via tail vein with 0.185 MBq of [^125I]LS370 or [^125I]LS734 (specific activities: [^125I]LS370-40×10^6 MBq/mmol; [^125I]LS734-10×10^6 MBq/mmol). At 1 h post injection, mice were killed. Organs of interest were removed and blotted dry. The radioactivity was measured in a gamma counter (Packard II gamma counter). Diluted standard doses (1:100) were prepared and counted along with the samples. Data points were corrected for radioactive decay. The percent injected dose per gram of tissue (% ID/g) was calculated.

The next series concerns MDA-MB-231 cells. Kind of series: Cell uptake and efflux studies. It counts as cell-based, human. The following applies: untreated MDA-MB-231 cells, 2 h postincubation at 37° C. The text has this: The goals of the cell-uptake studies were to (1) assess any changes in the structure-activity relationship resulting from the modular and responsive probe design and (2) evaluate the retention of the iodine containing hydrophobic peptide moiety in treated and untreated cells. Metastatic human breast MDA-MB-231 cells were used to evaluate whether the amino acid sequence modulation would enhance internalization, and how the probe would respond (intracellular) postchemotherapy. In the untreated cells, there was a higher uptake (P<0.001) of [^125I]LS734 (3.6±0.5) than [^125I]LS370 (0.3±0.3) at 2 h postincubation at 37° C. (FIG. 22A). […] The amount of iodinated fraction released by the untreated and treated cells at 3 h (post 2 h incubation and removal of excess activity) was used as a measure of the efflux activity.
MDA-MB-231 cells used for the uptake and efflux assay were grown on 24-well tissue culture plates until they were 80-90% confluent with […] cells per well. […] The experimental treatment group of cells was treated with 10 ng/ml of SN-38 (7-ethyl-10-hydroxy-camptothecin, Sigma Aldrich) for 24 h. Then, the SN-38 was removed, and the second chemotherapeutic drug, UCN-01 (Sigma Aldrich), was introduced at a concentration of […] in 0.1% BSA per well. At this point, respective radioactive solutions ([^125I]LS734 or [^125I]LS370, 0.02 μg per well; specific activities: [^125I]LS370-40×10^6 MBq/mmol; [^125I]LS734-10×10^6 MBq/mmol) were added to treated and control groups. The solutions were added drop-wise into the wells and gently mixed to ensure homogeneous distribution. The final volume per well was 240 μl, and the plates were incubated at 37° C. (5% CO2) for 2 h. After incubation, the supernatant (fraction 1) was collected, and the cells were washed twice with 250 μl of cold serum-free media. […] Fraction 2 represents the cell efflux, which is the amount of radioactivity released from cells after the 2 h uptake. […] The radioactivity in each fraction was measured in a well counter (Packard II gamma counter).

Series [2] concerns the target T2, MMP9 (Homo sapiens, UniProt P14780). Kind of series: In vitro MMP9 experiment with ^64Cu-labeled peptide-functionalized gold NPs. It counts as biochemical. The protocol:
Once surface-functionalized with the peptide and PEG, an experiment was performed in PBS in order to characterize the ability of MMP9 to cleave the peptide present on the nanoparticle surface. In this experiment, ^64Cu was chelated to DTPA on the peptide attached to the NP. The suspension was incubated with MMP9 for 1.5 hours and then the supernatant solution was separated from the NPs by centrifugal filtration. […] To further confirm the presence of the cleaved peptide, high performance liquid chromatography (HPLC) was performed on the supernatant solutions, and co-registered UV and radioactive peaks associated with the radiolabeled peptide fragment were observed (FIG. 6).
1 mL of peptide-functionalized gold NPs was centrifuged, supernatant decanted, and resuspended in 0.1 M NH4OAc. 110 μCi ^64Cu, provided by the Washington University Cyclotron Facility, was added to the NP pellet and shaken at 45° C. for 1 hour. Radiolabeled NPs were purified from nonchelated ^64Cu by centrifugation. Then NP suspensions were incubated with 20 ng MMP9 for 1.5 hours, after which 450 μL PBS was added and supernatant was purified from the NPs by centrifugation filtration using a 10 k MW filter. Supernatant and NP pellets were counted for radioactivity in a PerkinElmer 1480 Automatic Gamma Counter.

Series [3] deals with T2, MMP9. Kind of series: In vitro MMP9 cleavage of ^111In from non-radioactive gold nanoparticle probe. It counts as biochemical. On the procedure: (§1) To further validate the specificity of the activation, an identical experiment as the one just described was performed with an ^111In-labeled non-radioactive gold nanoparticle probe, similar to a radioactive nanoparticle previously reported. An initial in vitro validation was performed; when incubated with MMP9 for 48 hours, 48% ^111In was cleaved from the nanoparticle compared to only 16% without MMP9. With this singly-labeled probe, an alternative in vivo ratiometric imaging approach was performed (FIG. 18A). Rather than compare the ratio between two gamma energy channels, uptake intensity ratios between the lungs and kidneys or bladder were quantified. Importantly, clear distinctions were observed between the MMP9 and control groups. […] Differences were also observed 5 hours after injection (FIG. 18C), where the bladder/lung ratio remained elevated in the MMP9-incubated condition (0.19±0.15) compared to the control (0.03±0.003).
The dual-radiolabeled nanocrystal suspension was separated into 50 μL samples containing 20 ng MMP9 and incubated at 37° C. for 9 hours (along with control that was incubated without MMP9). 50 μL (˜80 μCi ^199Au and 40 μCi ^111In) was then intratracheally injected into C57 Black6 mice and two-channel SPECT imaging was performed as described above. […]

The target of series [4] is T2, MMP9. Kind of series: Organ ratiometric SPECT imaging (kidney/lung, bladder/lung) after MMP9 pre-incubation. Format: in vivo, C57 Black6 mice. The protocol:
as §1
The dual-radiolabeled nanocrystal suspension was separated into 50 μL samples containing 20 ng MMP9 and incubated at 37° C. for 9 hours (along with control that was incubated without MMP9). 50 μL (˜80 μCi ^199Au and 40 μCi ^111In) was then intratracheally injected into C57 Black6 mice and two-channel SPECT imaging was performed as described above. In another experiment, a similar protocol was performed with the non-radioactive gold NP core functionalized with an ^111In-labeled, MMP9-cleavable peptide. Briefly, 10 mL of 10 nm diameter gold nanoparticles (Sigma Aldrich) was centrifuged at 10 k g-force for 70 minutes, supernatant was removed, the pellet was resuspended in 1 mL of ultrapure water containing 2.2 mg mPEG-SH (MW=5000) and 1.0 mg pMMP9 peptide, and shaken overnight. Suspension was again centrifuged at 10 k g-force, supernatant removed, and the pellet was resuspended in 500 μL 0.1 M NH4OAc buffer (pH 5.5). Then 15 μL ^111InCl (5.23 mCi) was added and shaken at 45° C. for 90 minutes. Suspension was centrifuged at 10 k g-force for 90 minutes, supernatant removed, and the pellet containing 2.96 mCi was resuspended in 500 μL buffer. 50 μL aliquots with or without 10 ng MMP9 were prepared and shaken at 37° C. for 16 hours. 50 μL (˜230 μCi ^111In) was then intratracheally injected into C57 Black6 mice (n=4/group) and SPECT imaging was performed using the 245 keV channel immediately upon injection and 5 and 24 hours later.

Setting [5] is: MMP9-incubated probe, immediately upon injection.
Setting [6] is: control probe without MMP9, immediately upon injection.

T2 sequence (P14780 94-707, species assumed): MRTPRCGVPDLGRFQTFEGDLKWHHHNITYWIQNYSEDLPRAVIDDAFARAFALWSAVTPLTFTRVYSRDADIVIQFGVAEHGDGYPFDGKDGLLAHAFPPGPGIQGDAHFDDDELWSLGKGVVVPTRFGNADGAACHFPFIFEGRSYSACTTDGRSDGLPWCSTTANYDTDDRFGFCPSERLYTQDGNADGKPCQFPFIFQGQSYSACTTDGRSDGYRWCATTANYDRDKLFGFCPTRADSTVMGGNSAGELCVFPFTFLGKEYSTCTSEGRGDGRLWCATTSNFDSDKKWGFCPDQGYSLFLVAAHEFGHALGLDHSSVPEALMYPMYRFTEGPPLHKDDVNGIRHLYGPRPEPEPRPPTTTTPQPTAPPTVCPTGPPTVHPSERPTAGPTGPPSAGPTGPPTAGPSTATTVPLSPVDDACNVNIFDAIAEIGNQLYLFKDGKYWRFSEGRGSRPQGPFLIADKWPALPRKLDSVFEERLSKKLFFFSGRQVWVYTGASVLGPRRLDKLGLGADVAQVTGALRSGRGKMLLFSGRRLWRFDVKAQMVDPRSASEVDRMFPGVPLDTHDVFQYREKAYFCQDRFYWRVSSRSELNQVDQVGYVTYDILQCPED

Regarding `CC(=O)N[C@@H](CC(=O)O)C(=O)N[C@@H](CCC(=O)O)C(=O)N[C@H](C(=O)N[C@@H](CC(=O)O)C(=O)Nc1ccc([N+](=O)[O-])cc1)C(C)C` [Ac-DEVD (SEQ ID NO:2)-pNA, Ac-DEVD-pNA], on caspase-3, the Km came to 11 µM and the kcat worked out at 2.4 M/s.

Consider `CC(=O)NCCCCCC(=O)N[C@@H](Cc1ccc(O)c(I)c1)C(=O)NCCCCCC(=O)N[C@@H](CC(=O)O)C(=O)N[C@@H](CCC(=O)O)C(=O)N[C@H](C(=O)N[C@@H](CC(=O)O)C(=O)NCC(=O)N[C@@H](CCCCN)C(=O)NCC(=O)N[C@@H](CS)C(N)=O)C(C)C` [[^125I]LS370] (Ac-[Ahx][Tyr(3-I)][Ahx]DEVDGKGC-NH2), for which the tissue to tissue ratio at 1 h in series [1] (4T1luc tumor / blood, read-out: tumor/blood ratio) worked out at 0.6 ± 0.03; in series [1] (4T1luc tumor / muscle, read-out: tumor/muscle ratio) it was 2.1 ± 0.3. Moreover, in series [1] (thyroid), the tissue uptake at 1 h was determined as 73 ± 21 %ID/g. Moreover, in the series with MDA-MB-231 cells, the cell uptake came to 0.3±0.3.

Take “^64Cu-labeled nanoparticles ({DTPA′}-GPLGVRGKGYG[Ahx]C-NH2; not fully specified (residue 13); also: DTPA chelates 64Cu)”: the “radioactivity observed in the supernatant after incubation with MMP9” value in the series with MMP9 [2] ([…] incubation with MMP9, PBS, centrifugal filtration) came out at 23%. Further, the “radioactivity observed in the supernatant, control without MMP9” value with MMP9 [2] ([…], without MMP9) is on record as less than 5%.

Take “^111In-labeled non-radioactive gold nanoparticle probe ({DTPA′}-GPLGVRGKGYG[Ahx]C-NH2; not fully specified (residue 13); printed as Gly-Pro-Leu-Gly-Val-Arg-Gly-Lys-Gly-Tyr-Gly-Ahx-Cys; also: 111In chelated by DTPA, Cys thiol anchored to gold nanoparticle)”: the “^111In cleaved from the nanoparticle” value in the series with MMP9 [3] (incubated with MMP9 for 48 hours) is listed as 48%; with MMP9 [3] (without MMP9) it was 16%. Also, the bladder/lung uptake ratio with MMP9 [4] (MMP9-incubated probe, 5 hours after injection) came to 0.19±0.15; with MMP9 [4] (setting [5]), 0.56±0.24; with MMP9 [4] (control probe without MMP9, 5 hours after injection) it was 0.03±0.003; with MMP9 [4] (setting [6]), 0.08±0.04. For the same molecule, the kidney/lung uptake ratio was found to be 0.12±0.04 with MMP9 [4] (setting [5]) and 0.01±0.004 with MMP9 [4] (setting [6]).
